We go through one molecule from patent publication US20250346683A1 (AstraZeneca / MedImmune, published 2025).

This test deals with T1, human endothelial lipase (EL) (human, UniProt Q9Y5X9 21-500).
T1 construct: also called human EL; LIPG gene product
T1 sequence (looked up): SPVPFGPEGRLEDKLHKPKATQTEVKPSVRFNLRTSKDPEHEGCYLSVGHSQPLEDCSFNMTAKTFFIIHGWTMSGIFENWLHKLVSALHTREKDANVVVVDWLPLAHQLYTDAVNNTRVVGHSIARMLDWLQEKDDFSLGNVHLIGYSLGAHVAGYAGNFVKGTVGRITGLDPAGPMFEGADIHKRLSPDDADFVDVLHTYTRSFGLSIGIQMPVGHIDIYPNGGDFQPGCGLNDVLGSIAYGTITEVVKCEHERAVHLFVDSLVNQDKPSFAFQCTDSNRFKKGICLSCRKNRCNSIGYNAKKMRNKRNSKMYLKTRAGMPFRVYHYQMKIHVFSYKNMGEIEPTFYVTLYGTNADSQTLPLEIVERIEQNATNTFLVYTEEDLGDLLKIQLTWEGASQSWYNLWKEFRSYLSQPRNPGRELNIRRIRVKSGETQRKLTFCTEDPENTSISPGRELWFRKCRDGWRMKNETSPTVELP
As to the kind of experiment: sandwich ECL immunoassay (MSD): MEDI5884 coated as capture, EL from plasma or reference standard as analyte, biotinylated anti-human EL antibody (OriGene) as detection. As for the experimental part:
Sandwich immunoassay was developed for the detection human EL utilizing ECL readout. An MSD (MesoScale Discovery) plate was coated with 5 μg/ml of MEDI5884, at 50 μl/well, incubated at 4° C. on a flat surface and subsequently washed 3× with 300 μl/well of ELISA Wash Buffer. The assay plate(s) were blocked with 150 μl/well of I Block Buffer (IBB) for ≥60 min on an orbital plate shaker at room temperature (RT). Reference standards (RS), quality control (QC) and negative control (NC), prepared in IBB, and test samples were added to the plates at 35 μl/well. Samples that had been previously tested determined the minimally required dilution ratio (MRD) as two (2) for plasma samples. The assay plate(s) were incubated at RT on a plate shaker with gentle shaking for 60 minutes±10 minutes. Unbound analyte was removed by washing the plate(s) with ELISA wash buffer. To detect the captured analyte, 1 μg/ml of biotinylated anti-human EL monoclonal antibody (OriGene) was added at 35 μl/well and incubated for an additional 60 minutes±10 minutes at RT on a plate shaker. Unbound detection antibody was removed by washing the plate(s). […] Plates were washed again and Read Buffer was added at 150 μl/well. Signal was read on a MSD sector imager instrument within 20 minutes of addition of the Read Buffer. […]

B1: MEDI5884 (antibody, human IgG4 S228P, kappa, V domains shown)
VH: QVQLVQSGSELKKPGASVKVSCKASGYTFTNYALNWVRQAPGQGLEWMGWINTYSGVGTYAGEFKGRFVFSLDTSVSTAYLQISSLKAEDTAVYYCARRGFYGRRFFDVWGKGTTVTVSS
VL: DIQLTQSPSSLSASVGDRVTITCKASQSVDYDVDSYMHWYQQKPGKAPKLLIYAASNLASGVPSRFSGSGSGTDFTFTISSLQPEDIATYYCQQTIEDPPTFGGGTKVEIKR
notes: It was coated on the MSD plate as the capture reagent
For the molecule B1, the binding result was “binds”.
